Reference: paper PMC10914628 (Nature Chemistry, 2024)

Target: the molecule itself
Test: SEC; apo state; Superdex 200 in crosslinking buffer (20 mM HEPES pH 7.2, 250 mM KCl, 5 mM EDTA), before and after cross-linking

B1: p97-ND1L-ΔCys-F360C-A413C (domain or fragment)
chain: not shown
modifications: C360 and C413 joined between subunits by bismaleimidoethane (BMOE) in the cross-linked sample
notes: human p97 (VCP), UniProt P55072, residues 1-480; ΔCys: C69V-C77V-C105A-C174A-C184W-C209V-C415A, plus F360C and A413C; also called cysteine-free p97 variant with F360C and A413C; source: E. coli BL21(DE3), purified (Ni-NTA, TEV cleavage, SEC on Superdex 200; apyrase digestion); reduced with DTT and gel-filtered before cross-linking; not shown: His6, N-terminal, cleaved
stoichiometry N: 6
